In publication PMC6982183 (International Journal of Molecular Sciences, 2019):

Target: α-synuclein (human, UniProt P37840 1-140)
Assay: quartz crystal microbalance (QCM); α-synuclein (1 μM) immobilised by amine coupling; 2.5, 5, 10, 15, 20 nM AD(Cys) added; citrate buffer (pH 4.0); kon, koff from linear regression of kobs against concentration
Settings: both partners purified

B1: Hsp60 AD(Cys), isolated apical domain of human Hsp60 with cysteines at the N- and C-termini (domain or fragment)
chain: CGMKFDRGYISPYFINTSKGQKCEFQDAYVLLSEKKISSIQSIVPALEIANAHRKPLVIIAEDVDGEALSTLVLNRLKVGLQVVAVKAPGFGDNRKNQLKDMAIATGGAVFGEEGLTLNLEDVQPHDLGKVGEVIVTKDDAMLLKGKGDKAQIEKRIQEIIEQLDVTTSEYEKEKLNERLAKLSDC
modifications: disulfide bond between the two engineered cysteines at the N- and C-termini
notes: Cysteine introduced at the N-terminus; the primer ACCATGTGCGGCATGAAATTCGATCGCGGTT encodes Met-Cys-GMKFDRG; Apical domain of human Hsp60; Cysteine introduced at the C-terminus of the domain, before the His6 tag; the primer AGTGATTGCCACCACCACCACCACCACTGA encodes SD-Cys-HHHHHH-stop; A start Met precedes the N-terminal Cys in the construct; Monomer by gel filtration; also called …
Kd: 5.04 nM | koff: 0.00295 s⁻¹ | kon: 585000 M⁻¹ s⁻¹
